Assay [1] addresses T1, B-RCAL (BÜHLMANN recombinant calprotectin; His6-linker-S100A9-linker-S100A8).
T1 chain: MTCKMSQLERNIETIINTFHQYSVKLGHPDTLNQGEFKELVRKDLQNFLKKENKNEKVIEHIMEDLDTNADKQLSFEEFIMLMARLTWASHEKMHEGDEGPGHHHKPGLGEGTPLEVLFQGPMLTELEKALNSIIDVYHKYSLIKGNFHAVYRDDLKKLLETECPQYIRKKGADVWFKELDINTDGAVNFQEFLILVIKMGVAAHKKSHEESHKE
Description: fluorescence polarisation. To be noted: chain shown with the change, in the presence of calcium ions, three independent measurements.

The target in assay [2] is T2, B-RCAL (BÜHLMANN recombinant calprotectin; His6-linker-S100A9-linker-S100A8) (human).
T2 chain: T1 chain
The experiment in a line: FP. Conditions: modification not given.

Here are results for 6 molecules from PMC10192418, “High-affinity peptides developed against calprotectin and their application as synthetic ligands in diagnostic assays” (Nature Communications, 2023).

The term Kd denotes the constant that tells how readily two partners part at equilibrium. With RSPESVAFPMFQCHWYCG [peptide 3 isomer 1 (dumbbell shaped, double-bridged) C2S; C5S], the Kd in assay [1] (Cys3-Cys4 chemically bridged) was 17.9 nM. With RSPESVAFPMFQSHAYSG [W15A], the Kd in assay [2] was determined as 24 nM. Same read-out and setting: the value for RSPASVAFPMFQSHWYSG [E4A] was 26 nM; that for RSPESVAFAMFQSHWYSG [P9A] was 30 nM.

As to RCPECVAFPMFQSHWYSG [peptide 3 isomer 1 (dumbbell shaped, double-bridged) C13S; C17S], the Kd in assay [1] (Cys1-Cys2 chemically bridged) was 16.9 nM.

For RSPESVAFPMFQSHWYSA [G18A], the Kd in assay [2] worked out at 31 nM.
